The source of these data is patent US20060029601A1 (E R SQUIBB AND SONS L L C, published 2006).

Test [1] deals with T1, human interferon alpha receptor 1 (IFNAR-1) on cells (Daudi, U937, human peripheral blood mononuclear cells) (human, UniProt P17181 28-557).
T1 sequence (looked up): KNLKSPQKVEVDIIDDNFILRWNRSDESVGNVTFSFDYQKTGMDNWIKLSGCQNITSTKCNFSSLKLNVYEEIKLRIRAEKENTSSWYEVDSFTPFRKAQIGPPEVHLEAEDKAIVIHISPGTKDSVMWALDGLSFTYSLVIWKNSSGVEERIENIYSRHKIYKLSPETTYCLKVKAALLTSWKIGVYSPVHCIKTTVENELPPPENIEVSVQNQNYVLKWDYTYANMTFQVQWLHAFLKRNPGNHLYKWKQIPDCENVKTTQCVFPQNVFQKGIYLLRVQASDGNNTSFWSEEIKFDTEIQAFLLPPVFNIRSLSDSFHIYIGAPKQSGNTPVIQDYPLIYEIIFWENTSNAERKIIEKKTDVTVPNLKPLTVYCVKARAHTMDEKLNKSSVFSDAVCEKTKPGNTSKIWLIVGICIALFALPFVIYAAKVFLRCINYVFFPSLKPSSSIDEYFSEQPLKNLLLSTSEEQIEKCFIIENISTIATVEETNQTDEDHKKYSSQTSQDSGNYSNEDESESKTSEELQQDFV
The experiment in a line: cell-based or functional assay.

For test [2], the target named is T2, soluble CHO-derived human IFNAR-1 (human, UniProt P17181 28-436).
T2 construct: extracellular domain; also called soluble IFNAR-1
T2 sequence (looked up): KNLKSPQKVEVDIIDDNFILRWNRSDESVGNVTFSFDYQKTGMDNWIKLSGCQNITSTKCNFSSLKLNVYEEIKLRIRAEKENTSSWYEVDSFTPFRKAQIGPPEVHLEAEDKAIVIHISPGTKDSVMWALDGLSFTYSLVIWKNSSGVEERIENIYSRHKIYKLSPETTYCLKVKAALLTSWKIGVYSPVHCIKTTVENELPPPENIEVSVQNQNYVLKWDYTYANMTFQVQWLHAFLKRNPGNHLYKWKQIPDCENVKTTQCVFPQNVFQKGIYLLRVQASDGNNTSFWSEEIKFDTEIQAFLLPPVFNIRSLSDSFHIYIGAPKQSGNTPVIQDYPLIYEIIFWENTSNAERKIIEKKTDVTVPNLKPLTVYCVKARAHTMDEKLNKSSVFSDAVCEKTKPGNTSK
Kind of test: cross-competition ELISA on plate-coated soluble CHO-derived human IFNAR-1; titrated antibody against 64G12 at 0.3 ug/mL as competitor, detected with anti-mouse IgG (Fc) peroxidase, O.D. 415 nm.

The target of test [3] is T1, human interferon alpha receptor 1 …. The experiment in a line: cell-based or functional assay. The source holds these as a separate data set.

B1: human monoclonal antibody 11E2 (antibody, IgG1, V domains shown)
VH: EVQLVQSGAEVKKPGESLKISCKGSGYIFTNYWIAWVRQMPGKGLESMGIIYPGDSDIRYSPSFQGQVTISADKSITTAYLQWSSLKASDTAMYYCARHDIEGFDYWGRGTLVTVSS
VL: EIVLTQSPGTLSLSPGERATLSCRASQSVSSSFFAWYQQKPGQAPRLLIYGASSRATGIPDRLSGSGSGTDFTLTITRLEPEDFAVYYCQQYDSSAITFGQGTRLEIK
As to B1, in test [1], the “Cell Proliferation (Daudi) EC50, blocking of IFN omega” value (“Cell Proliferation … of IFN omega” for short) came to 0.3 nM.

B2: human monoclonal antibody 9D4 (antibody, IgG1, V domains shown)
VH: B1 VH
VL: B1 VL
On to B2, for which, in test [1], the “Cell Proliferation … of IFN omega” value stood at 0.3 nM.

B3: murine anti-IFNAR-1 antibody 64G12 (ECACC Deposit No. 92022605) (antibody, V domains shown)
VH: QVTLKESGPGILKPSQTLSLTCSFSGFSLSTSGMGIGWIRQPSGKGLEWLAHIWWDDDKYYNPSLKSQLTISRDTSTNQVFLNITSVDTVDTATYYCGRNYYPYDAWFDYWGQGTLVTVS
VL: EIVLTQSPTTMAASPGEKITITCSASSSINSNHLHWYQQKPGFSPKVLIYRTSILASGVPTRFSGSGSGTSYSLTIGTMEAEDVATYYCQQGSNIPFTFGSGTELEIKR
On to B3, for which, in test [2], the “IC50 (read off the curve)” value was about 0.7 µg/mL. The “Cell Proliferation … of IFN omega” value in test [1] came to 5.5 nM. Also, in test [3], the “Cell Proliferation (Daudi) EC50, blocking of IFN alpha 2b” value was 3.1 nM and the “ISRE-RG Reporter (U937) EC50, blocking of IFN alpha 2b” value is 6 nM.

B4: human monoclonal antibody 4G5 (antibody, IgG1, V domains shown)
VH: QVQLQQWGAGLLKPSETLSLTCAVYGGSFSNYYWSWIRQPPGKGLEWIGEIILSGSTNYNPSLKSRVTISVDTSKNQFSLNLTSVTAADTAVYYCARESKWGYYFDSWGQGTLVTVSS
VL: AIQLTQSPSSLSASVGDRVTITCRATQDISIALVWYQQKPGKAPELLIYDASGLGSGVPSRFSGSGSGTDFTLTISSLQPEDFATYYCQQFNSYPYTFGQGTKLEIK
For the molecule B4, in test [1], the “Cell Proliferation … of IFN omega” value came out at 1.4 nM.

B5: human monoclonal antibody 3F11 (antibody, IgG1, V domains shown)
VH: QVQLQQWGAGLLKPSETLSLTCAVYGGSFSGYFWSWIRQPPGKGLEWIGEIDHSGKTNYNPSLKSRVTISVDTSKNQVSLKLSSVTAADTAVYYCARESKYYFGLDVWGQGTTVTVTS
VL: AIQLTQSPSSLSASVGDRVTITCRASQGIYSVLAWYQQKPGKTPKLLIYDASRLESGVPSRFSGSGSGTDFTLTISSLQPEDFATYYCQQFNSYITFGQGTRLEIK
B5: the “Cell Proliferation … of IFN omega” value in test [1] turned out to be 0.6 nM. Moreover, in test [3], the “Cell Proliferation (Daudi) EC50, blocking of IFN alpha 2b” value was found to be 0.3 nM and the “ISRE-RG Reporter (U937) EC50, blocking of IFN alpha 2b” value turned out to be 1.2 nM.
